B1: TPR t1 (parent)
chain: GACCAAUCUGCCCUCAGAGCUCGAGAACAUCUUCGGAUGCAGAGGAGGCAGGCUUCGGUGGCGCGAUAGCGCCAACGUCCUCAACCUCCAAUGCAUCCCACCACAUGAUGAUGCCUGAAGAGCCUUGGUUUUUUG

Variants of: B1
Test: polymerase ribozyme fitness, log enrichment relative to wild type (log ratio); higher = more active; in vitro selection for triplet polymerase activity
Outline: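 After PCR construction and transcription, each subunit's mutant library from a heterodimeric triplet polymerase ribozyme was annealed with a biotinylated primer, the partner subunit and triplets. Incubation was frozen, at −7 °C, and extended constructs were gel-excised, bound to streptavidin beads and amplified by RT-PCR, in one selection round done in triplicate. Fitness is the logarithm of a genotype's enrichment divided by that of the wild type, from inverse-variance-weighted replicate averages of Illumina-sequenced inputs and outputs. The base of the logarithm is 2, and genotypes needed ≥10 input reads and ≥1 read per output.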

Row | Variant | polymerase ribozyme fitness (log ratio)
1 | C20G G117C | -5.4
2 | C20U G77U A91G | -5.11
3 | U21A A43U C72A | -2.36
4 | C20U U55A C79U G120A | -1.1
5 | U21A G23A A121C | -5.61
6 | C22A G52U A66U U112G | -5.88
7 | U21G C56U U78G C86U A121G | -0.445
8 | C20A A95G U112A G120U | -1.91
9 | C20U G117U | -3.53
10 | C20U A43G U112C | -0.81
11 | G19U C56A G113C | -3.24
12 | C20A C124A | -0.989
13 | C20A G110A | -4.21
14 | U21A C22G A27U C56U C114U | -3.34
15 | C20G A43G G48A C72G U106A C123A U129A | -6.54
16 | U21A A43U G61U C102A | -4.93
17 | U21G U87C C114U | -1.41
18 | U21C G77C | -0.73
19 | C20U U38A A50U G71A | -4.89
20 | U21C G77A C88U U106C G110A | -5
21 | C20G U33G C34G G44A A46U C98G G110C G113C | -6.24
22 | C20U C22G A50C C97U U106A A121C | -4.3
23 | C20A U32A | -3.55
24 | U21A C124G | 0.373

Row | Variant | polymerase ribozyme fitness (log ratio)
25 | C20A G45U C56U | -3.25
26 | U21A U59C G69U C123A G128C | -3.33
27 | U21A G36A | -0.614
28 | U21C U30G C31A G36C C124A | -4.94
29 | U21A C40A A46U A90U G93U | -2.45
30 | C20U C31G A66U C73U C98A G110A | -6.9
31 | G19C C101A | -3.27
32 | C20U C22A G23U G44U G63U A66C C88G A103C U109A | -6.53
33 | C20A U112C U116A | -3.11
34 | U21A G45A G58A G60U A100U C101G | -2.68
35 | U21C U55A U78A U131A | -0.459
36 | U21G G48C G63A | -4.12
37 | G19U C79U C82U A95C C101A | -4.63
38 | C20U G35C G57U C80U U129G | -5.92
39 | C20A C28U C62U C101A G113A | -6.69
40 | G19U C70U U78C C88U | -3.57
41 | C20U C53G | -1.28
42 | C20U G61A C88A | -1.39
43 | C20A G71A | -3.79
44 | C20A G63U C85G | -5.08
45 | C22A C72A U106A A118G | -3.71
46 | G19U A111C | -2.32
47 | U21C G52U G60C | -1.61
48 | C20U C56A C73U U129G U130A | -3

Row | Variant | polymerase ribozyme fitness (log ratio)
49 | G19U C80A G113A | -5
50 | C20G C62U G113C | -1.25
51 | C22A G60C C73U | -5.64
52 | C20A G77U G120C | -1.96
53 | C20U A27C G117U | -6
54 | U21A C34A C82A C123U U133G | -2.66
55 | C20G G69A G113A | -5.37
56 | C20A U87G U92G | -4.3
57 | C20A C72G U131G | -3.6
58 | U21A A43U G60A C115U | -2.81
59 | C20G G47A G57U | -5.83
60 | G19U U59A | -3.3
61 | C20U C62A C104U A119U C123A G128U | -2.83
62 | U21A G44A C62U | -1.4
63 | C20U G23A G61A U112A G113A G122C U130C | -6.32
64 | C20A G45U | -4.09
65 | C20U G63A U96G | -3.22
66 | U21C G61C | -2.11
67 | C20A C62G A66C C104G U116C C123G G128U | -6.82
68 | C20U C72G A91G C101A C114G | -2.36
69 | C20U G44U A50G A74G | -3.66
70 | C22A C53G | -5
71 | G19U G61A C82G C124A | -2.1
72 | G19C G45A C53U | -3.65

Row | Variant | polymerase ribozyme fitness (log ratio)
73 | C20U G52A | -0.737
74 | C20A U59C | -2.71
75 | C20G U32G C80A C99A C124G | -5.93
76 | C20U C72U C82U C115A | -1.91
77 | C20A C56U U96G | -3.51
78 | C20G C72A C115A | -4.55
79 | G19U G110A | -4.35
80 | C22A G93U | -6.27
81 | C20U G60A | -1.03
82 | C20U G60U | -1.52
83 | G19C C70U U112A G120A U130C | -2.23
84 | C22A G36A U55C U96A A111U | -6.03
85 | C22A G52A G60A G117U C123U U131C | -6.69
86 | C20A U92G G110U | -5.28
87 | C20U A46C C72G | -3.17
88 | G19U G25A C53U C64G G107C C114G | -8.12
89 | C20G G44C C72G A95G | -5.22
90 | C20U C70U C102U | -3.45
91 | U21A C72A U125G | -0.653
92 | C22A C49U C73G | -4.03
93 | C20G C56A C124U | -4.05
94 | U21G C70U G93A | -3.75
95 | C20A A74U | -3.01
96 | C20A C73U | -2.08

Row | Variant | polymerase ribozyme fitness (log ratio)
97 | U21A C76U A91C | -2.35
98 | G19C G58C A75U C82G | -3.28
99 | U21G A37U C80A A121G | -3.51
100 | G19C C49A A50U G69U C89U U106A C123G U132A U133G | -1.46
101 | U21A A119U | -0.295
102 | U21C C70G C94U A111G G128A U131A | -3.27
103 | U21C A50U C70U C99U A111U | -7.45
104 | U21A A37C U38G U112G G122C C124U G135A | -1.11
105 | U21A G23U G42C A68G C94A U112A | -6.75
106 | C20G G52A A111U | -3.23
107 | C22A G51A G71C A111C | -6.96
108 | C20U A41C | -3.04
109 | C20G G113C | -1.32
110 | C20G G113A | -2.69
111 | C22A A83G U96A C114A | -5.87
112 | G19U U55G U87G A95C U112C C114A | 0.393
113 | U21A A37U C72U | -0.453
114 | C20G C76U G93C A95G C124A | -4.72
115 | C22A G44U G93A C124U | -4.53
116 | C20A C31U G44C A68C G113C U116C G135C | -5.66
117 | C22A A43U U106C C114U | -4.24
118 | C22A A26U | -4.2
119 | U21A A37U C94U G120A | 0.736
120 | C20G U106C | -4.11

Row | Variant | polymerase ribozyme fitness (log ratio)
121 | U21G U54C G58A U81A A91G A95U G113A U125G | -5.59
122 | C20A U32G G44A C73A C114G U132A | -5.73
123 | C20G C40U G42C G48U U109A | -4.15
124 | C20G A37G G69U C79U G117C | -1.73
125 | G19U G107A G120A U125A | -7.29
126 | U21C G69U C89U | -0.984
127 | C22A C40A C73A C123U | -4.93
128 | C20A C22G G113A U132A | -4.93
129 | C20U G120C | -0.868
130 | C20U C22A C76U C85G C123U | -5.95
131 | U21A C72G C86G | -2.59
132 | C20A C88A | -2.94
133 | C22A G61A | -4.54
134 | C20A G63A C102G G113C C115A G117C | -8.43
135 | G19U G120U | -2.46
136 | U21A C94G | -1.64
137 | U21A C62A C89U G110A U112C | -5.55
138 | G19U | -2.52
139 | C20U A37U C72G C101A | -2.76
140 | C20U C22A G23U G44U G63A C88G A103C U109A | -6.38
141 | C22A G36U U55C G120A | -4.54
142 | C20A G39C | -3.59
143 | U21C A41G G44A C98U | -4.24
144 | C22A A37U | -5.66

Row | Variant | polymerase ribozyme fitness (log ratio)
145 | U21A U81A C101A G113C | -4.64
146 | U21G G63C U78A C115U A119U U130A | -5.59
147 | C20A G39A G42C G61U U129C | -5.17
148 | U21A G57C G120A | -0.312
149 | C20U C40G A46C G60U A75C | -4.1
150 | C20U G47U C82G | -4.12
151 | U21G C64U G77A G93U | -3.27
152 | C20A G52C U125A | -3.04
153 | U21G G47A A100C U109A U112C A119G | -7.27
154 | C20U G63U G93A C114G | -2.6
155 | C22A C56G | -4.66
156 | C20U C53G G69C | -2.15
157 | G19U C53G C73A U112A G135A | -0.754
158 | C20U G42A | -2.49
159 | C20A G42C A43G | -3.32
160 | C20U A91U | -2.81
161 | G19U C49U C53U G60U C123U | -5.84
162 | U21A U92A | -3.73
163 | U21A G60A U96C U116G | -1.53
164 | C20U A43G C62U U112C | -1.04
165 | C20G C53U G60A U96A | -5.21
166 | C20G G107A C114U G122A | -6.03
167 | C20U C94G C101U U106A | -5.04
